{"source": "patent US20220193195A1", "about": "“LYMPHOTOXIN ALPHA FOR USE IN THERAPY OF MYELOID LEUKEMIA” (Klinikum Rechts der Isar der Technischen Universität München, priority 2019, published 2022)", "molecules": {"B1": {"name": "LT-α: Lymphotoxin alpha polypeptide (SEQ ID No. 1/2); recombinant mouse LT-α used in mouse tests, recombinant human LT-α in human cell tests (protein, UniProt P01374 35-205, looked up)", "Lymphotoxin-alpha": "LPGVGLTPSAAQTARQHPKMHLAHSTLKPAAHLIGDPSKQNSLLWRANTDRAFLQDGFSLSNNSLLVPTSGIYFVYSQVVFSGKAYSPKATSSPLYLAHEVQLFSSQYPFHVPLLSSQKMVYPGLQEPWLHSMYHGAAFQLTQGDQLSTHTDGIPHLVLSPSTVFFGAFAL", "modifications": "mouse LT-α also used"}}, "key": {"AML cell lines": {"tested_on": "AML cell lines", "assay": "Relative number of cells in AML cell lines after treatment (flow cytometry)", "type": "cell-based, human", "details": "panel of nine AML cell lines; 7 days; vs untreated cells", "description": "All centrifugation steps were performed at 400×g."}, "[1]": {"tested_on": "AML primary human samples", "assay": "Primary AML bone marrow samples treated in vitro for 7 days (Lin- cells, LSC, CD99- HSPC)", "type": "cell-based", "details": "for cell death of AML cells (blasts, LSCs), comparison between treatments: 7-day treatment of AML primary human samples", "excerpt": "Primary and secondary AML samples were obtained from patients enrolled in the clinical trial AMLCG-2008 (http://clinicaltrial.gov identifier NCT01382147), the AML register protocol of the AML Register and Biomaterial Database of the German Leukemia Study Alliance, the AML register protocol of the German AML Cooperative Group Version 2.0 from Jan. 6, 2011, the AML register protocol of the German AML study group, or treated at the III. Medical Department at the Technical University of Munich after approval of the local ethics committee (approval no. 62/16 S from Feb. 10, 2016 to 2790/10 from Apr. 30, 2010). Informed consent was obtained from patients at study entry.\nTo examine how targeting TNF/ LT-α signaling can be most effectively used to treat AML, the inventors treated AML primary human samples in vitro. LT-α and a-TNF (Adalimumab) were evaluated, alone or in combination. Moreover, LT-α was tested in combination with the standard AML chemotherapeutic Cytarabine (CYT), the clinical SMAC mimetic Birinapant, and the clinical pan-caspase inhibitor Emricasan. Drug concentrations were determined after titration in healthy bone marrow samples and AML cell lines (data not shown). After 7-day-treatment, cell viability was evaluated, using CD99 to discriminate between non-leukaemogenic HSPCs (CD99^−) and LSCs (FIG. 4c)."}, "FLT3-ITD-transduced BM": {"tested_on": "FLT3-ITD-transduced BM", "assay": "Colony forming cell assay (CFU-GEMM) of FLT3-ITD-transduced bone marrow", "type": "cell-based, mouse", "details": "WT FLT3-ITD transduced cultures; rm LT-α 100 ng/ml, rm TNF 100 ng/ml, Etanercept 50 ng/ml; counted after 10 days; vs control", "description": "For colony forming cell assays, all duplicate cultures were performed in 35 mm petri dishes in murine methylcellulose medium (Methocult, Stem Cell Technologies). BM cells of unchallenged or 5-FUchallenged mice were plated in M3434. […] For analysis of colony forming units (CFU) cell viability, colonies were grown for 10 days in the presence of propidium iodide (PI) (0.8 μg/ml; Sigma) and representative CFU-GEMM were imaged using a Keyence BZ-9000 (Biorevo) fluorescence microscope."}, "[2]": {"tested_on": "WT FLT3-ITD mice (FLT3-ITD-driven myeloproliferative disorder)", "method": "For treatment, two- and eight-weeks post transplantation animals were randomly divided into groups of eight. Mice were i.v. injected twice per week with either isotype control (5 mg/kg; RTK2071; Biolegend), Etanercept (Enbrel®, 50 ng/ml; Pfizer), rm LT-α (250 μg/kg; Cusabio), a-TNF (5 mg/kg; MP6-XT22; Biolegend), or rm LT-α plus a-TNF.\nMice with disease were sacrificed. Peripheral blood white blood cell counts (WBC) were measured by scil Vet abc (scil animal care company). Single-cell suspensions of indicated tissue samples were prepared and red blood cells of peripheral blood were lysed before analysis. Cells were pre-incubated with Fc-block and subsequently stained with fluorescently labeled antibodies. Dead cells were excluded by PI (Sigma) or Zombie Aqua™ Fixable Viability Kit (Biolegend) staining according to the manufacturer's instructions."}, "K562": {"tested_on": "K562", "assay": "Relative number of K562 CML cells after treatment", "details": "alone or with imatinib 1 or 10 μM; vs untreated cells", "method": "As a model for CML, LT-α was tested for potential effects on the cell line K562, either separately against the standard therapy imatinib (in concentrations of 1 or 10 μM) alone, or in combination (FIG. 5)."}, "healthy BM [3]": {"tested_on": "healthy BM", "assay": "Hematopoietic cell subsets in healthy bone marrow treated with LT-α", "details": "100 ng/ml LT-α", "method": "(§1) Human primary samples: Bone marrow mononuclear cells (BMMC) were isolated from heparinized bone marrow samples or bone chips by centrifugation over a Ficoll-Hypaque layer (Biochrom) of 1.077 g/ml density. Cells were harvested and used directly for immunephenotyping or cultured in IMDM (Gibco) supplemented with 20% fetal calf serum (FCS; PAN-Biotech), penicillin/streptomycin 0.05 mM, L-glutamine 2 mM, and 2-mercaptoethanol 0.05 mM (Gibco) on EL08-1D2 stromal cells.\n(§2) For flow cytometry analysis after treatment, BM cells or AML cell lines were cultured as described above for 7 days in the presence of the following cytokines and inhibitors if indicated and not stated otherwise: Etanercept (Enbrel®; 50 ng/ml; Pfizer), recombinant human (rh) LT-α (100 ng/ml; R&D), rh TNF (100 ng/ml; R&D), Emricasan (2.5 nM; SelleckChem), Birinapant (10 nM; SelleckChem), Cytarabine (100 nM), a-LTα-Ig (10 μg/ml; 359-238-8; Biolegend), Adalimumab (Humira®; 500 ng/ml; Abbvie), and respective isotype controls Mouse IgG1, κ (MOPC-21; Biolegend), and Ultra-LEAF™ purified Human IgG1 (QA16A12; Biolegend).\n(§3) Non-leukemia control samples were collected from individuals who underwent bone marrow aspiration for diagnostic purposes and in whom subsequently a hematological disease was ruled out. Healthy controls were isolated from the femoral heads of patients who underwent surgical hip replacement.\n(§4) Antibodies used to separate human hematopoietic cell subsets, for immunephenotyping and intracellular protein expression analysis: Fluorescently labelled antibodies against Lineage Cocktail (Cat #348801; 348703), CD45RA (HI100), CD34 (581), CD38 (HB-7), CD99 (3B2/TA8), CD123 (5B11) were obtained from Biolegend. Flow analysis was performed on a BD FACS Canto II (BD Biosciences) and data were analyzed using FlowJo software (Tree Star)."}, "healthy BM [4]": {"tested_on": "healthy BM", "method": "as §1, §2, §3, §4"}, "[5]": {"details": "WT FLT3-ITD mice, treated twice per week"}, "[6]": {"details": "compared to controls, data not shown"}}, "note": "Entries after “also recorded” stand apart in the source; their conditions may differ.", "data": [{"molecule": "adalimumab", "values": [{"measurement": "number of AML cells", "setting": "AML cell lines", "result": "drastic reduction"}]}, {"molecule": "CC[C@H](NC(=O)[C@H](C)NC)C(=O)N1C[C@@H](O)C[C@H]1Cc1c(-c2[nH]c3cc(F)ccc3c2C[C@@H]2C[C@H](O)CN2C(=O)[C@H](CC)NC(=O)[C@H](C)NC)[nH]c2cc(F)ccc12", "note": "[Birinapant, reference compound]", "values": [{"measurement": "cell death of AML cells (blasts, LSCs), comparison between treatments", "setting": "[1]", "result": "better at promoting cell death, both of blasts and LSCs, than Cytarabine"}]}, {"molecule": "Etanercept", "values": [{"measurement": "number of AML cells", "setting": "AML cell lines", "result": "not observed"}, {"measurement": "number of GEMM colonies", "setting": "FLT3-ITD-transduced BM", "result": "increase"}, {"measurement": "remission / disease outcome", "setting": "[2]; [5]", "result": "rapidly succumbed to disease"}, {"measurement": "Median survival", "setting": "[2]; WT mice transplanted with FLT3-ITD-transduced WT BM, treated i.v. twice per week", "result": 65, "unit": "days"}, {"measurement": "WBC counts", "setting": "[2]; [6]", "result": "considerably elevated"}, {"measurement": "hepato-splenomegaly", "setting": "[2]; [6]", "result": "increased"}, {"measurement": "latency", "setting": "[2]; [6]", "result": "reduced"}, {"measurement": "leukemic burden", "setting": "[2]; [6]", "result": "elevated"}, {"measurement": "number of primitive leukemic cells", "setting": "[2]; [6]", "result": "drastically increased"}]}, {"molecule": "C[C@H](NC(=O)C(=O)Nc1ccccc1C(C)(C)C)C(=O)N[C@@H](CC(=O)O)C(=O)COc1c(F)c(F)cc(F)c1F", "note": "[Emricasan, reference compound]", "values": [{"measurement": "cell death of AML cells (blasts, LSCs), comparison between treatments", "setting": "[1]", "result": "resistant to LT-α- and Birinapant-induced cell death"}]}, {"molecule": "B1", "values": [{"measurement": "number of AML cells", "setting": "AML cell lines", "result": "significantly decreased"}, {"measurement": "effect on K562 cells (relative number of cells)", "setting": "K562", "result": "significant effects; also recorded: kills blast cells"}, {"measurement": "number of GEMM colonies", "setting": "FLT3-ITD-transduced BM", "result": "significantly reduced"}, {"measurement": "toxic effect on healthy bone marrow", "setting": "healthy BM [3]; bone marrow samples from healthy control patients", "result": "not elicit any detectable toxic effect"}, {"measurement": "healthy haematopoiesis (HSCs and myeloid progenitor subsets)", "setting": "healthy BM [3]; healthy BM", "result": "sustained"}, {"measurement": "cell death of AML cells (blasts, LSCs), comparison between treatments", "setting": "[1]", "result": "more effectively than the standard AML chemotherapeutic Cytarabine; also recorded: more efficient manner than a-TNF"}, {"measurement": "non-leukaemogenic HSPCs (CD99-)", "setting": "[1]; 7-day treatment, a-TNF = Adalimumab", "result": "promoted expansion"}, {"measurement": "Lin- cells (bulk of AML blasts and healthy HSPCs)", "setting": "[1]; 7-day treatment, rh LT-α 100 ng/ml", "result": "killed"}, {"measurement": "LSCs in AML BM samples", "setting": "[1]; 7-day treatment, rh LT-α 100 ng/ml, a-TNF = Adalimumab 500 ng/ml", "result": "killed"}, {"measurement": "toxicity to healthy controls / healthy cells", "setting": "healthy BM [4]", "result": "lacks any pronounced cytotoxicity"}, {"measurement": "tolerability in vivo", "setting": "[2]; WT FLT3-ITD mice, i.v. twice per week", "result": "well tolerated"}, {"measurement": "remission / disease outcome", "setting": "[2]; [5]", "result": "induced durable remissions"}, {"measurement": "LSCs in FLT3-ITD-transplanted mice", "setting": "[2]; treated twice per week", "result": "eradicates LSCs"}]}]}
